Experimental findings from PMC4839565, “Evolution of Telomeres in Schizosaccharomyces pombe and Its Possible Relationship to the Diversification of Telomere Binding Proteins” are described below.

As a reminder, the Kd is the concentration at which binding is half-saturated.

Data set [1] has as its target T1, Taz1p (6HN-Taz1) (Schizosaccharomyces pombe, UniProt P79005 2-663).
T1 sequence: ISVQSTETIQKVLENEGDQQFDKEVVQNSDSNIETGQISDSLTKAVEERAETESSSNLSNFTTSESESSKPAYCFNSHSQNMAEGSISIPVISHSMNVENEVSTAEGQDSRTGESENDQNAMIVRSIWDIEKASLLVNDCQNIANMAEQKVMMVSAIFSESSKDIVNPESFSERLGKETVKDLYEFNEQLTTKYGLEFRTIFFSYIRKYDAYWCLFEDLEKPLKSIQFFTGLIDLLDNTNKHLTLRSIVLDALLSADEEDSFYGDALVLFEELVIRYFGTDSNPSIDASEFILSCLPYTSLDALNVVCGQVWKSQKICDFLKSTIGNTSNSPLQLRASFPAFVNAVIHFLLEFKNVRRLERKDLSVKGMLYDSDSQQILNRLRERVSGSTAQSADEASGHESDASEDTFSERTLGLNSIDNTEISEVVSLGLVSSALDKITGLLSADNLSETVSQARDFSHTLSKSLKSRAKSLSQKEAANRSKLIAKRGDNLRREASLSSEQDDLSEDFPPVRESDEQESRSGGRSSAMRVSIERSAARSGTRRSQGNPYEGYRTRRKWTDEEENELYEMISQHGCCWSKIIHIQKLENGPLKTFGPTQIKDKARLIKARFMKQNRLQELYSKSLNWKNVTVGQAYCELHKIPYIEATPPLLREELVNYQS
Kind of data set: fluorescence anisotropy; HNED, 0.1 mM DTT, 25 C; HNE: 20 mM HEPES-NaOH pH 7.5, 1 mM EDTA, 100 mM NaCl (Teb1); HNED = HNE + 0.1 mM DTT (Taz1). FA: 2 nM DNA, 25 C (Teb1/SpTEL 37 C). EMSA: 15 nM DNA, 0.05-4.5 uM. As to conditions: protein: recombinant; tags: N-terminal 6HN; chain copies: 2; EMSA: 5'-32P on strand A; blunt. (Fluorescence polarisation rises when a labelled molecule tumbles more slowly, as on binding a larger partner.)

In data set [2] the target is T2, Teb1p (6HN-Teb1) (Schizosaccharomyces pombe, UniProt Q10274 2-390).
T2 sequence: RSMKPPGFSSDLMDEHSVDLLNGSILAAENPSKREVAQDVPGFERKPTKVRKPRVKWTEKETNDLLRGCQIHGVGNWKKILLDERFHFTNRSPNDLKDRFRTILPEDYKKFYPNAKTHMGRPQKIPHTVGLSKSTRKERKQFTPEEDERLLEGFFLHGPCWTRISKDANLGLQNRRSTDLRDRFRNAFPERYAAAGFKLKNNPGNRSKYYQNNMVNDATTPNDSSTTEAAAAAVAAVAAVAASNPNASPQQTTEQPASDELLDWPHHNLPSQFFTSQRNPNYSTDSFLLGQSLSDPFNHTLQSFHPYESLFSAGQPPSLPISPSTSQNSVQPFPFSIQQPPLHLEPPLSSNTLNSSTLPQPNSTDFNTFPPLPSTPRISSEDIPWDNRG
The data set is described as follows: fluorescence anisotropy; HNE, no DTT, 25 C; HNE: 20 mM HEPES-NaOH pH 7.5, 1 mM EDTA, 100 mM NaCl (Teb1); HNED = HNE + 0.1 mM DTT (Taz1). FA: 2 nM DNA, 25 C (Teb1/SpTEL 37 C). EMSA: 15 nM DNA, 0.05-4.5 uM. As to conditions: protein: recombinant; tags: N-terminal 6HN; C-terminal GST removed with PreScission protease (residual site residues); EMSA: 5'-32P on strand A; blunt.

Data set [3] deals with T2, Teb1p (6HN-Teb1). Kind of data set: EMSA; no DTT; HNE: 20 mM HEPES-NaOH pH 7.5, 1 mM EDTA, 100 mM NaCl (Teb1); HNED = HNE + 0.1 mM DTT (Taz1). FA: 2 nM DNA, 25 C (Teb1/SpTEL 37 C). EMSA: 15 nM DNA, 0.05-4.5 uM. As to conditions: protein: recombinant; tags: N-terminal 6HN; C-terminal GST removed with PreScission protease (residual site residues); label: 5'-32P on strand A; blunt.

Data set [4] addresses T2, Teb1p (6HN-Teb1). Kind of data set: fluorescence anisotropy; HNE, no DTT, 37 C; HNE: 20 mM HEPES-NaOH pH 7.5, 1 mM EDTA, 100 mM NaCl (Teb1); HNED = HNE + 0.1 mM DTT (Taz1). FA: 2 nM DNA, 25 C (Teb1/SpTEL 37 C). EMSA: 15 nM DNA, 0.05-4.5 uM. The settings on record: protein: recombinant; tags: N-terminal 6HN; C-terminal GST removed with PreScission protease (residual site residues); EMSA: 5'-32P on strand A; blunt.

The target in data set [5] is T2, Teb1p (6HN-Teb1). The data set is described as follows: EMSA; no DTT; almost complete restoration; HNE: 20 mM HEPES-NaOH pH 7.5, 1 mM EDTA, 100 mM NaCl (Teb1); HNED = HNE + 0.1 mM DTT (Taz1). FA: 2 nM DNA, 25 C (Teb1/SpTEL 37 C). EMSA: 15 nM DNA, 0.05-4.5 uM. As to conditions: protein: recombinant; tags: N-terminal 6HN; C-terminal GST removed with PreScission protease (residual site residues); label: 5'-32P on strand A; blunt. In general terms: In EMSA bound probe runs differently from free probe, usually more slowly.

B1: HsTEL (dsDNA)
DNA 1: GTTAGGGTTAGGGTTAG
DNA 2: CTAACCCTAACCCTAAC
As to B1, the Kd was found to be 54 ± 5 nM in data set [1] and 31 ± 5 nM in data set [2].

B2: HisBox (dsDNA)
DNA 1: AGGGTTAGGGTTGTGAT
DNA 2: ATCACAACCCTAACCCT
On to B2, for which the results for the Kd in data set [1] and in data set [2] were 380 ± 50 nM and 53 ± 6 nM, respectively.

B3: HisBoxMut (dsDNA)
DNA 1: AGGGTGTGAGTTGTGAT
DNA 2: ATCACAACTCACACCCT
As for B3, in data set [3], the binding result was “no binding”.

B4: SpTEL (dsDNA)
DNA 1: TTACAGGGGGTTACAGGG
DNA 2: CCCTGTAACCCCCTGTAA
In the case of B4, the Kd in data set [1] was 115 ± 9 nM; in data set [4], 380 ± 30 nM.

B5: HisBoxFlankPart (dsDNA)
DNA 1: AGGGTTAGGGTTACAGC
DNA 2: GCTGTAACCCTAACCCT
B5: the binding result in data set [5] is recorded as “binds”.
